Assay results reported in PMC6385126.

Experiments:
[1] = test system: His1 (position 1, -----HVD---); test: Raman; details: 22 °C; not stated (no added salt apart from NaOH/HCl used for pH adjustment); none stated; C2-deuterated peptide H(C2-D)VD, about 10 mM, free in solution
[2] = test system: His1 (position 1, -----HVD---); test: NMR; details: 25 °C; none stated (0.1% DSS as shift standard); Non-deuterated peptide, 1 mM, free in solution

Substance: HVD tripeptide (Ac-His-Val-Asp-NH2), N-terminal fragment of a hydrogel-forming semenogelin I peptide (synthetic; sequence derived from Homo sapiens semenogelin I)
- pKa [1]: 6.82
- pKa [2]: 6.87 ± 0.03
